# Experiments:
# [1] = target: human ACE2-hFc fusion protein (human) (UniProt Q9BYF1); test: SPR
# [2] = target: Encapsulin–SpyTag (Myxococcus xanthus | Streptococcus pyogenes) (UniProt Q1D6H4); test: SEC-MALS
stoichiometry N [2],Substance,kon [1],per cent reduction of binding after four weeks at 37 °C [1],per cent reduction of binding after two weeks at 37 °C [1]
,Encapsulin–mRBD nanoparticle (from UniProt Q1D6H4;P0DTC2) (complex),2.58e+06 M⁻¹ s⁻¹,36 per cent,1 per cent
180,Encapsulin–SpyTag (from UniProt Q1D6H4 1-287),,,

# Reference: publication PMC9961482
